B1: Speckle-type POZ protein (Homo sapiens), O43791 (parent)
chain: MSRVPSPPPPAEMSSGPVAESWCYTQIKVVKFSYMWTINNFSFCREEMGEVIKSSTFSSGANDKLKWCLRVNPKGLDEESKDYLSLYLLLVSCPKSEVRAKFKFSILNAKGEETKAMESQRAYRFVQGKDWGFKKFIRRDFLLDEANGLLPDDKLTLFCEVSVVQDSVNISGQNTMNMVKVPECRLADELGGLWENSRFTDCCLCVAGQEFQAHKAILAARSPVFSAMFEHEMEESKKNRVEINDVEPEVFKEMMCFIYTGKAPNLDKMADDLLAAADKYALERLKVMCEDALCSNLSVENAAEILILADLHSADQLKTQAVDFINYHASDVLETSGWKSMVVSHPHLVAEAYRSLASAQCPFLGPPRKRLKQS

Variants of: B1
Settings: with nox1_human NOX1, Q9Y5S8

effect of a mutation on the interaction	Variant
with no effect	Y87C

Variants of: B1
Settings: with ntrk2_human NTRK2, Q16620

effect of a mutation on the interaction	Variant
with no effect	Y87C

Variants of: B1
Settings: with ntrk3_human NTRK3, Q16288

effect of a mutation on the interaction	Variant
with no effect	Y87C

Variants of: B1
Settings: with pak3_human PAK3, O75914

effect of a mutation on the interaction	Variant
with no effect	Y87C

Variants of: B1
Settings: with prkn_human PRKN

effect of a mutation on the interaction	Variant
with no effect	Y87C

Variants of: B1
Settings: with pb1_human PBRM1, Q86U86
Chain of pb1_human PBRM1, Q86U86 (Q86U86 whole entry): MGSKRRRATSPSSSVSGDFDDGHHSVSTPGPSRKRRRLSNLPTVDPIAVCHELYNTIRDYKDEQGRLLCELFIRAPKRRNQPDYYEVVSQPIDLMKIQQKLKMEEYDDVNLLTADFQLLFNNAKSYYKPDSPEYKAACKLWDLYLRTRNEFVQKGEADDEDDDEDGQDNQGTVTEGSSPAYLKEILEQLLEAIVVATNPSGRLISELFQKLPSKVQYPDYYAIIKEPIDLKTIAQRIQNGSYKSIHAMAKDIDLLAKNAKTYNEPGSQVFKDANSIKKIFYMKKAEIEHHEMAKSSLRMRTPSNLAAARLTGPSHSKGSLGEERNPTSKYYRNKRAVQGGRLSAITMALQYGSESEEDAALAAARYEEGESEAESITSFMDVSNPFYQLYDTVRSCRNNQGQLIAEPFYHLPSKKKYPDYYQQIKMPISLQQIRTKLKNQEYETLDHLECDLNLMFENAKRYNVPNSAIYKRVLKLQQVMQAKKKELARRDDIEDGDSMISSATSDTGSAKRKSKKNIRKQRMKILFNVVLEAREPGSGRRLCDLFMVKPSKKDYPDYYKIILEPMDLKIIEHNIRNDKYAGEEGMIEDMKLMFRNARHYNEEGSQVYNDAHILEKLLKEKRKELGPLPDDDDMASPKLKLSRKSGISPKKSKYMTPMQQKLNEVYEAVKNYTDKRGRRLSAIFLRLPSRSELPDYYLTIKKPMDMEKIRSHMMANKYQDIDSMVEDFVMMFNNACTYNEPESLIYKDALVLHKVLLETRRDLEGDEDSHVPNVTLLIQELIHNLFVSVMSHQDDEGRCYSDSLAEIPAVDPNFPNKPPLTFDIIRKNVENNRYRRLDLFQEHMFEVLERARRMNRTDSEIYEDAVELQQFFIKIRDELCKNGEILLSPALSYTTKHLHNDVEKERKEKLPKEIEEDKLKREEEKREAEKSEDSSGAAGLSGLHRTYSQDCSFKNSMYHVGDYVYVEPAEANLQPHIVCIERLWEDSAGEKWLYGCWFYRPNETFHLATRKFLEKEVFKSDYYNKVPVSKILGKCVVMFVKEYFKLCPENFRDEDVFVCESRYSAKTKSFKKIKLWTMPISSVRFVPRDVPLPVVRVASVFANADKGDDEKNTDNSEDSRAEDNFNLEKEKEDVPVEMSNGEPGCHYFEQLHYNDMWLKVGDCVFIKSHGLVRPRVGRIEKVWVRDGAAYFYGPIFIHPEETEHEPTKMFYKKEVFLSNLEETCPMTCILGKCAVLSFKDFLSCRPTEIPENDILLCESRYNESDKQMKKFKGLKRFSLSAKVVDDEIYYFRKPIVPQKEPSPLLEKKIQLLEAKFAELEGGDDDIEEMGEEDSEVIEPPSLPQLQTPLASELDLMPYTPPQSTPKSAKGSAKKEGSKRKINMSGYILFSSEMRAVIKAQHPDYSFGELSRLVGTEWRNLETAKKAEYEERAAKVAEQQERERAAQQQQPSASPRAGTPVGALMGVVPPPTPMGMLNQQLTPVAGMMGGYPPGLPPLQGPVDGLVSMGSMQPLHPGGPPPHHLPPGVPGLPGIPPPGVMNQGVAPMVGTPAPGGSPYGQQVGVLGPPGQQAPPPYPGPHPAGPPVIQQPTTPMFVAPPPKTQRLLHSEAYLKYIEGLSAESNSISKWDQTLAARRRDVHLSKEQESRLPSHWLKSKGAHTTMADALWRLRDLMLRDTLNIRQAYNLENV

effect of a mutation on the interaction	Variant
with no effect	Y87C

Variants of: B1
Settings: with pcbp1_human PCBP1, Q15365

effect of a mutation on the interaction	Variant
with no effect	Y87C

Variants of: B1
Settings: with pdcd1_human PDCD1, Q15116

effect of a mutation on the interaction	Variant
with no effect	Y87C

Variants of: B1
Settings: with pgfrb_human PDGFRB

effect of a mutation on the interaction	Variant
with no effect	Y87C

Variants of: B1
Settings: with pdk1_human PDK1, Q15118
Chain of pdk1_human PDK1, Q15118 (Q15118 whole entry, looked up): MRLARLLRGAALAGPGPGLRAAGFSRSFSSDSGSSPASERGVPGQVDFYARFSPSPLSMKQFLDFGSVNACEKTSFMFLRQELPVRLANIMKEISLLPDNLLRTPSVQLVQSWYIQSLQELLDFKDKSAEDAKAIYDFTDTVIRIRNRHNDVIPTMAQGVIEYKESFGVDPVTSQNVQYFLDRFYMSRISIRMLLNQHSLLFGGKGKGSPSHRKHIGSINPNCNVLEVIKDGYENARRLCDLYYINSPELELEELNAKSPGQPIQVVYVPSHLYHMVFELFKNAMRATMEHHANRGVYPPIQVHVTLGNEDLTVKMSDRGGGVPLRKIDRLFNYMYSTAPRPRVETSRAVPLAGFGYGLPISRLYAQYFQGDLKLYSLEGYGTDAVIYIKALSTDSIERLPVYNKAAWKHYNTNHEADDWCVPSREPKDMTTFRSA

effect of a mutation on the interaction	Variant
with no effect	Y87C

Variants of: B1
Settings: with PIK3C2B

effect of a mutation on the interaction	Variant
with no effect	Y87C

Variants of: B1
Settings: with pk3cb_human PIK3CB

effect of a mutation on the interaction	Variant
with no effect	Y87C

Variants of: B1
Settings: with pk3cg_human PIK3CG

effect of a mutation on the interaction	Variant
with no effect	Y87C

Variants of: B1
Settings: with p85b_human PIK3R2, O00459
Chain of p85b_human PIK3R2, O00459 (O00459 whole entry): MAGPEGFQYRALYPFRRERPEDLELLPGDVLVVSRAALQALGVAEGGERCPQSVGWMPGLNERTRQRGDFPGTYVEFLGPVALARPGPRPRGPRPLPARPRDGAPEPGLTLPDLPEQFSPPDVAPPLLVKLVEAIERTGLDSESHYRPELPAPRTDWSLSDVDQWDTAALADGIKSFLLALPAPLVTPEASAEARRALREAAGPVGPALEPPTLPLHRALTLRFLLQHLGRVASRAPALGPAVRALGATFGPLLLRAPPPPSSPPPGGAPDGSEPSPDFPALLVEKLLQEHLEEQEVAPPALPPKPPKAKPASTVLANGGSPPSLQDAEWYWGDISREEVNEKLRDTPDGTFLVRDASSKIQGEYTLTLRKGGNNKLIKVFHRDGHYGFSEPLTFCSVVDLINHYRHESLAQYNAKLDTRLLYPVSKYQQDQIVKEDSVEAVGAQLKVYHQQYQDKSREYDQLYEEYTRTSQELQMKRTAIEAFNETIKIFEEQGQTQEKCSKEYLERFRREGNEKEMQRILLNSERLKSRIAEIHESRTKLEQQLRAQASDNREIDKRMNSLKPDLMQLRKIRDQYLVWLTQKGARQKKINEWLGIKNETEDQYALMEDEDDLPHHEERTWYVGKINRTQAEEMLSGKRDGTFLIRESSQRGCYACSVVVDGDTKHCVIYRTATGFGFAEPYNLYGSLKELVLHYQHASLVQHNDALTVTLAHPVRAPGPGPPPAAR

effect of a mutation on the interaction	Variant
with no effect	Y87C

Variants of: B1
Settings: with dpod1_human POLD1, P28340

effect of a mutation on the interaction	Variant
with no effect	Y87C

Variants of: B1
Settings: with dpoe1_human POLE

effect of a mutation on the interaction	Variant
with no effect	Y87C

Variants of: B1
Settings: with ppard_human PPARD

effect of a mutation on the interaction	Variant
with no effect	Y87C

Variants of: B1
Settings: with prdm1_human PRDM1, O75626

effect of a mutation on the interaction	Variant
with no effect	Y87C

Variants of: B1
Settings: with prex2_human PREX2, Q70Z35

effect of a mutation on the interaction	Variant
with no effect	Y87C

Variants of: B1
Settings: with aapk2_human PRKAA2, P54646
Chain of aapk2_human PRKAA2, P54646 (P54646 whole entry, looked up): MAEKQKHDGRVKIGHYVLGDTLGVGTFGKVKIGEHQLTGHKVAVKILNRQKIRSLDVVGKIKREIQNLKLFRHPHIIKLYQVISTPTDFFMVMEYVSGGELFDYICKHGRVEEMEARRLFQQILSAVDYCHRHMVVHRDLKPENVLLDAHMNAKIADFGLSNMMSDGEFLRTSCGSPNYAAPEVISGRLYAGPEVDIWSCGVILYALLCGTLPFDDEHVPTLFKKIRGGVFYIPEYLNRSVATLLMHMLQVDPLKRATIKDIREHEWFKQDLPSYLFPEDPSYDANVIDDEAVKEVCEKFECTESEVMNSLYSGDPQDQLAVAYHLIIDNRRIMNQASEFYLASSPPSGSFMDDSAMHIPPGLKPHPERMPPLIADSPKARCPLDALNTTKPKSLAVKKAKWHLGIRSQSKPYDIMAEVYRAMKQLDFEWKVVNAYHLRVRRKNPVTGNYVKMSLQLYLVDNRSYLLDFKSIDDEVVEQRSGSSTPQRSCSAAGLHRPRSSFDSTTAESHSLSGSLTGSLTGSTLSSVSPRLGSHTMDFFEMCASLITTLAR

effect of a mutation on the interaction	Variant
with no effect	Y87C

Variants of: B1
Settings: with prss8_human PRSS8, Q16651

effect of a mutation on the interaction	Variant
with no effect	Y87C

Variants of: B1
Settings: with ptk6_human PTK6, Q13882

effect of a mutation on the interaction	Variant
with no effect	Y87C

Variants of: B1
Settings: with tf65_human RELA

effect of a mutation on the interaction	Variant
with no effect	Y87C

Variants of: B1
Settings: with rictr_human RICTOR

effect of a mutation on the interaction	Variant
with no effect	Y87C

Variants of: B1
Settings: with rnf43_human RNF43, Q68DV7

effect of a mutation on the interaction	Variant
with no effect	Y87C

Variants of: B1
Settings: with ros1_human ROS1, P08922

effect of a mutation on the interaction	Variant
with no effect	Y87C

Variants of: B1
Settings: with rl11_human RPL11, P62913

effect of a mutation on the interaction	Variant
with no effect	Y87C

Variants of: B1
Settings: with rl5_human RPL5, P46777

effect of a mutation on the interaction	Variant
with no effect	Y87C

Variants of: B1
Settings: with rs15_human RPS15, P62841

effect of a mutation on the interaction	Variant
with no effect	Y87C

Variants of: B1
Settings: with rs2_human RPS2, P15880

effect of a mutation on the interaction	Variant
with no effect	Y87C

Variants of: B1
Settings: with rptor_human RPTOR

effect of a mutation on the interaction	Variant
with no effect	Y87C

Variants of: B1
Settings: with rxra_human RXRA

effect of a mutation on the interaction	Variant
with no effect	Y87C

Variants of: B1
Settings: with sdha_human SDHA

effect of a mutation on the interaction	Variant
with no effect	Y87C

Variants of: B1
Settings: with setbp_human SETBP1, Q9Y6X0

effect of a mutation on the interaction	Variant
with no effect	Y87C

Variants of: B1
Settings: with setb1_human SETDB1, Q15047

effect of a mutation on the interaction	Variant
with no effect	Y87C

Variants of: B1
Settings: with skp2_human SKP2, Q13309

effect of a mutation on the interaction	Variant
with no effect	Y87C

Variants of: B1
Settings: with smad1_human SMAD1, Q15797

effect of a mutation on the interaction	Variant
with no effect	Y87C

Variants of: B1
Settings: with smca4_human SMARCA4, P51532

effect of a mutation on the interaction	Variant
with no effect	Y87C

Variants of: B1
Settings: with snf5_human SMARCB1, Q12824

effect of a mutation on the interaction	Variant
with no effect	Y87C

Variants of: B1
Settings: with smo_human SMO

effect of a mutation on the interaction	Variant
with no effect	Y87C

Variants of: B1
Settings: with smuf1_human SMURF1, Q9HCE7

effect of a mutation on the interaction	Variant
with no effect	Y87C

Variants of: B1
Settings: with socs1_human SOCS1, O15524

effect of a mutation on the interaction	Variant
with no effect	Y87C

Variants of: B1
Settings: with sox10_human SOX10, P56693

effect of a mutation on the interaction	Variant
with no effect	Y87C

Variants of: B1
Settings: with sox2_human SOX2, P48431
Chain of sox2_human SOX2, P48431 (P48431 whole entry): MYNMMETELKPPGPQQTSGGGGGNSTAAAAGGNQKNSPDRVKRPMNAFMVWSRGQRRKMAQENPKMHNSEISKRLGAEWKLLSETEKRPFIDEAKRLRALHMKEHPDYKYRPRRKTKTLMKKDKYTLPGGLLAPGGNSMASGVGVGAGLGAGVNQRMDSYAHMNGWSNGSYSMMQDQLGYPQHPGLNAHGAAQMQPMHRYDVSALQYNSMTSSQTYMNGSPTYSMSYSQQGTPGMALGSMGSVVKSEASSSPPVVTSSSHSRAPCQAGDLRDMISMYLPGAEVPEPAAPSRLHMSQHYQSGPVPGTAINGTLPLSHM

effect of a mutation on the interaction	Variant
with no effect	Y87C

Variants of: B1
Settings: with src_human SRC

effect of a mutation on the interaction	Variant
with no effect	Y87C

Variants of: B1
Settings: with whr1_human WHR1, P49842

effect of a mutation on the interaction	Variant
with no effect	Y87C

Variants of: B1
Settings: with stk38_human STK38, Q15208

effect of a mutation on the interaction	Variant
with no effect	Y87C

Variants of: B1
Settings: with eloc_human ELOC

effect of a mutation on the interaction	Variant
with no effect	Y87C

Variants of: B1
Settings: with tfe2_human TCF3, P15923

effect of a mutation on the interaction	Variant
with no effect	Y87C

Variants of: B1
Settings: with tead1_human TEAD1, P28347

effect of a mutation on the interaction	Variant
with no effect	Y87C

Variants of: B1
Settings: with tead3_human TEAD3, Q99594

effect of a mutation on the interaction	Variant
with no effect	Y87C

Variants of: B1
Settings: with tead4_human TEAD4, Q15561

effect of a mutation on the interaction	Variant
with no effect	Y87C

Variants of: B1
Settings: with tet2_human TET2, Q6N021

effect of a mutation on the interaction	Variant
with no effect	Y87C

Variants of: B1
Settings: with tgfr2_human TGFBR2, P37173
Chain of tgfr2_human TGFBR2, P37173 (P37173 whole entry): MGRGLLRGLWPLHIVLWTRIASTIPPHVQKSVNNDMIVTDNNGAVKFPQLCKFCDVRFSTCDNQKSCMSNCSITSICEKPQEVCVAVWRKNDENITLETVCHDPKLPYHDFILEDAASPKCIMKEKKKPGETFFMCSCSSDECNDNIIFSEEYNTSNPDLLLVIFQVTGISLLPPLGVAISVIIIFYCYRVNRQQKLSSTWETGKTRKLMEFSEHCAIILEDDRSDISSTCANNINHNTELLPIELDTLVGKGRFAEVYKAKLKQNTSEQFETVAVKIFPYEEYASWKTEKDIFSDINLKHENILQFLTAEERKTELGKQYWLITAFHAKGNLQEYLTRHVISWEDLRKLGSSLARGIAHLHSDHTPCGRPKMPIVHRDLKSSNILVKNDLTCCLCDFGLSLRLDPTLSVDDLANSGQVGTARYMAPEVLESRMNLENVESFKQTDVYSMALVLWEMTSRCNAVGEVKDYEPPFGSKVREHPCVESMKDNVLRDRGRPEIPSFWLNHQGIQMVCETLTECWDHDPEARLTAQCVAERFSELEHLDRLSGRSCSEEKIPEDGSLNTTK

effect of a mutation on the interaction	Variant
with no effect	Y87C

Variants of: B1
Settings: with tnr14_human TNFRSF14, Q92956

effect of a mutation on the interaction	Variant
with no effect	Y87C

Variants of: B1
Settings: with tsc2_human TSC2, P49815

effect of a mutation on the interaction	Variant
with no effect	Y87C

Variants of: B1
Settings: with tshr_human TSHR

effect of a mutation on the interaction	Variant
with no effect	Y87C

Variants of: B1
Settings: with vegfa_human VEGFA

effect of a mutation on the interaction	Variant
with no effect	Y87C

Variants of: B1
Settings: with vhl_human VHL

effect of a mutation on the interaction	Variant
with no effect	Y87C

Variants of: B1
Settings: with wee1_human WEE1, P30291
Chain of wee1_human WEE1, P30291 (P30291 whole entry, looked up): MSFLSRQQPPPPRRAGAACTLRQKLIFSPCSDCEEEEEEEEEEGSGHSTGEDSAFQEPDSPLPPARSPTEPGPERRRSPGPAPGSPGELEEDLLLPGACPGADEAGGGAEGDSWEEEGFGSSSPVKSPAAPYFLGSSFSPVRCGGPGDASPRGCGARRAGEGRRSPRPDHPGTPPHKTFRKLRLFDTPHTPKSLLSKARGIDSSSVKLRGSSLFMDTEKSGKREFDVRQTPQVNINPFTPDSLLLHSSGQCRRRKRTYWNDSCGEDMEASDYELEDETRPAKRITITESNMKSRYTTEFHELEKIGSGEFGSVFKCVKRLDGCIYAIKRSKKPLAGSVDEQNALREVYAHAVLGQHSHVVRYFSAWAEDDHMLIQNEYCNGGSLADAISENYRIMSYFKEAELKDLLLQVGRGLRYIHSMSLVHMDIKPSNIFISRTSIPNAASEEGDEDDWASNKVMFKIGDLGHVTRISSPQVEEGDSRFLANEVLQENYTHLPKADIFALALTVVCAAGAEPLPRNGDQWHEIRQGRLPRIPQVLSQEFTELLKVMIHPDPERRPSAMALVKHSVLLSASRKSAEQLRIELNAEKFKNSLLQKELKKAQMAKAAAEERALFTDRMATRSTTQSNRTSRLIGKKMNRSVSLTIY

effect of a mutation on the interaction	Variant
with no effect	Y87C

Variants of: B1
Settings: with wwtr1_human WWTR1, Q9GZV5

effect of a mutation on the interaction	Variant
with no effect	Y87C

Variants of: B1
Settings: with xpo1_human XPO1, O14980

effect of a mutation on the interaction	Variant
with no effect	Y87C

Variants of: B1
Settings: with il7ra_human IL7R

effect of a mutation on the interaction	Variant
increasing interaction strength	Y87C

Reference: IntAct's records for PubMed 35512704
